Test results reported in the supplement of paper PMC10126150.
± gives the standard deviation of the averaged measurements.

Tested on: ATP
Assay: switch fluorescence ratio, 500 uM ATP over buffer (Cy3 cluster intensity, sum of 5 cycles each) (fold (ratio)); higher = stronger signal-on switching upon ATP binding; sequences stand for … in TCGTCGGCAGCGTCAGATGTGTATAAGAGACAGTTTTTTTTTTTTTTTTTTTTTTTTT…TC
Details: aptamer strand: ATP DNA aptamer (quencher-CACCTGGGGGAGTATTGCGGAGGAAGG + anchor), 100 nM annealed; ATP concentration: 500 uM
How it was run: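 Clusters carrying Cy3-labelled switching strands on a modified Illumina MiSeq flow-cell were annealed to 100 nM quencher-labelled ATP aptamer and imaged in selection buffer. They were imaged again after 15 min with 500 uM ATP at 22 °C, over five buffer/ATP cycles with NaOH stripping and re-annealing in between. For each cluster, the fluorescence ratio is the summed Cy3 intensity of the target cycles divided by that of the buffer cycles, averaged per switch-domain sequence. Clusters outside 100-1000 RFU were left out.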
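Further: ATP exposure 15 min at 22 °C before imaging.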

| Sequence | switch fluorescence ratio |
| --- | --- |
| GCGGATCAGC | 1.01 ± 0.059 |
| GCGGATTGTG | 1.032 ± 0.0053 |
| GCGGCAAAAT | 1.01 ± 0.041 |
| GCGGCAGGGC | 1.05 ± 0.017 |
| GCGGCATGGT | 0.985 ± 0.0093 |
| GCGGCCGTTG | 0.965 ± 0.064 |
| GCGGCGGCGT | 1.002 ± 0.0023 |
| GCGGCTGTCG | 0.948 ± 0.085 |
| GCGGCTTAAC | 1.02 ± 0.022 |
| GCGGGACTGG | 1.04 ± 0.034 |
| GCGGGATGTC | 0.972 ± 0.02 |
| GCGGGCCCTT | 1.01 ± 0.012 |
| GCGGGCCGGG | 0.988 ± 0.058 |
| GCGGGCCTTT | 1.015 ± 0.0066 |
| GCGGGGACGC | 0.9982 ± 0.0021 |
| GCGGGGATCT | 1.038 ± 0.0091 |
| GCGGGGATTT | 0.996 ± 0.023 |
| GCGGGGCTTA | 0.98878 ± 0.00093 |
| GCGGGGGAAG | 1 ± 0.02 |
| GCGGGGGACT | 0.997 ± 0.016 |
| GCGGGGGCGG | 1.01 ± 0.018 |
| GCGGGGGGCC | 1.05 ± 0.1 |
| GCGGGGGGCG | 1.01 ± 0.041 |
| GCGGGGGTAG | 1.17 ± 0.25 |
| GCGGGGGTCT | 1.03 ± 0.1 |
| GCGGGGTGTG | 1.016 ± 0.0033 |

| Sequence | switch fluorescence ratio |
| --- | --- |
| GCGGGTACTG | 1.001 ± 0.0052 |
| GCGGGTAGTG | 1.02 ± 0.028 |
| GCGGGTATTG | 0.964 ± 0.038 |
| GCGGGTCATG | 0.981 ± 0.021 |
| GCGGGTCTGG | 1.03 ± 0.022 |
| GCGGGTTGCT | 1.25 ± 0.39 |
| GCGGGTTGGC | 1.08 ± 0.011 |
| GCGGGTTGGG | 0.984 ± 0.047 |
| GCGGTACTGC | 0.999 ± 0.019 |
| GCGGTAGTTC | 1.02 ± 0.023 |
| GCGGTATGGG | 0.9645 ± 0.0046 |
| GCGGTCACGG | 0.9974 ± 0.0092 |
| GCGGTGACTG | 0.965 ± 0.018 |
| GCGGTTAGCT | 1.04 ± 0.066 |
| GCGGTTAGGC | 0.968 ± 0.034 |
| GCGGTTGCTG | 0.954 ± 0.04 |
| GCGGTTGTGC | 0.935 ± 0.051 |
| GCGTAAAAAG | 1.03 ± 0.011 |
| GCGTAAAAGG | 0.974 ± 0.034 |
| GCGTAAACGG | 1.06 ± 0.022 |
| GCGTAAAGGA | 1.02 ± 0.015 |
| GCGTAATCCG | 1.02 ± 0.042 |
| GCGTAATGTT | 0.999 ± 0.022 |
| GCGTACGGCG | 0.993 ± 0.054 |
| GCGTAGATGG | 1.006 ± 0.0087 |
| GCGTATGCCC | 1.019 ± 0.0062 |

| Sequence | switch fluorescence ratio |
| --- | --- |
| GCGTATGGGG | 0.977 ± 0.027 |
| GCGTATTGGC | 1.03 ± 0.013 |
| GCGTCCAGTT | 1.09 ± 0.12 |
| GCGTCCGGGA | 1.21 ± 0.092 |
| GCGTCGCTTT | 0.952 ± 0.046 |
| GCGTCGGTGT | 0.98 ± 0.01 |
| GCGTCTATTG | 0.9987 ± 0.0051 |
| GCGTCTGGGC | 0.992 ± 0.015 |
| GCGTGATAGA | 1.04 ± 0.017 |
| GCGTGCAATG | 1.026 ± 0.0018 |
| GCGTGCAGGC | 1.03 ± 0.023 |
| GCGTGCGGGC | 1.03 ± 0.043 |
| GCGTGCGGGG | 1.028 ± 0.0098 |
| GCGTGCTGTA | 1.013 ± 0.006 |
| GCGTGGAGGA | 1.05 ± 0.026 |
| GCGTGGGGAA | 1.07 ± 0.036 |
| GCGTGGGTTG | 0.998 ± 0.048 |
| GCGTGTGGGG | 1.02 ± 0.021 |
| GCGTGTGGTC | 1.02 ± 0.039 |
| GCGTGTGGTG | 1.02 ± 0.043 |
| GCGTGTTAGT | 1.023 ± 0.0021 |
| GCGTTAAGCA | 0.968 ± 0.07 |
| GCGTTAGCCA | 1.01 ± 0.022 |
| GCGTTGCAGG | 1.02 ± 0.018 |
| GCGTTTAATA | 0.997 ± 0.014 |
| GCGTTTAGGG | 1.03 ± 0.054 |

| Sequence | switch fluorescence ratio |
| --- | --- |
| GCGTTTTCGT | 0.972 ± 0.013 |
| GCTAAAATTT | 1 ± 0.029 |
| GCTAATATGG | 0.998 ± 0.044 |
| GCTAATGGTC | 0.977 ± 0.085 |
| GCTAATGTTA | 1.01 ± 0.03 |
| GCTAATGTTT | 0.998 ± 0.031 |
| GCTAATTATA | 1.01 ± 0.015 |
| GCTACCGGTG | 1.1 ± 0.072 |
| GCTAGAAATG | 0.978 ± 0.043 |
| GCTAGATCAC | 1.02 ± 0.025 |
| GCTAGCCAAA | 0.998 ± 0.011 |
| GCTAGCGGTC | 1.08 ± 0.02 |
| GCTAGCGTGG | 1.02 ± 0.091 |
| GCTAGCTCAG | 1.023 ± 0.008 |
| GCTAGGGCGT | 0.972 ± 0.051 |
| GCTAGGTGAC | 1.1 ± 0.037 |
| GCTAGGTGTA | 1.12 ± 0.043 |
| GCTAGTAAGA | 1.014 ± 0.008 |
| GCTATAAGTG | 0.969 ± 0.027 |
| GCTATATAGT | 1.01 ± 0.011 |
| GCTATATGGC | 1.01 ± 0.024 |
| GCTATCTGGA | 0.998 ± 0.031 |
| GCTATGAACC | 1.0349 ± 0.0008 |
| GCTATGATAA | 0.9933 ± 0.0072 |
| GCTATGCCTA | 0.997 ± 0.023 |
| GCTATGGGAT | 0.995 ± 0.04 |

| Sequence | switch fluorescence ratio |
| --- | --- |
| GCTATTATAT | 1.02 ± 0.015 |
| GCTATTGGAA | 0.993 ± 0.022 |
| GCTCAAGGTA | 1.006 ± 0.0044 |
| GCTCAATTGG | 1.018 ± 0.006 |
| GCTCAGTAGT | 1.03 ± 0.027 |
| GCTCATAGAT | 0.988 ± 0.013 |
| GCTCATAGCA | 1.02 ± 0.022 |
| GCTCCAGTTA | 1.178 ± 0.0045 |
| GCTCCCAGGA | 1.92 ± 0.026 |
| GCTCCCGGGG | 1.24 ± 0.12 |
| GCTCCGGGCG | 1.13 ± 0.075 |
| GCTCCTACGA | 1.46 ± 0.046 |
| GCTCGACTTT | 1.02 ± 0.012 |
| GCTCGGATAA | 1.0306 ± 0.00026 |
| GCTCGTGATA | 1.21 ± 0.05 |
| GCTCTATGTA | 1.03 ± 0.014 |
| GCTCTCTTTT | 0.9805 ± 0.0037 |
| GCTCTGAGTA | 1.04 ± 0.073 |
| GCTCTGGCAA | 1.57 ± 0.07 |
| GCTCTTATTA | 0.977 ± 0.021 |
| GCTCTTGGGC | 0.999 ± 0.012 |
| GCTCTTTGAC | 0.987 ± 0.029 |
| GCTCTTTTGG | 0.997 ± 0.019 |
| GCTGAAAGTG | 1 ± 0.057 |
| GCTGAACTTC | 0.9804 ± 0.0089 |
| GCTGAAGGTT | 1.25 ± 0.36 |

| Sequence | switch fluorescence ratio |
| --- | --- |
| GCTGAATAAG | 0.9815 ± 0.0088 |
| GCTGACTGGT | 0.9939 ± 0.001 |
| GCTGAGGTGA | 1.02 ± 0.042 |
| GCTGATACTT | 1.07 ± 0.02 |
| GCTGATGCGG | 0.999 ± 0.012 |
| GCTGATGGTG | 0.989 ± 0.02 |
| GCTGCGACCA | 1.131 ± 0.0024 |
| GCTGCTAGTG | 0.97 ± 0.017 |
| GCTGCTGTAT | 1.01 ± 0.022 |
| GCTGGAGGTC | 1.01 ± 0.03 |
| GCTGGCAGAC | 1.23 ± 0.032 |
| GCTGGCTGGC | 1.01 ± 0.11 |
| GCTGGGAATA | 0.9499 ± 0.0028 |
| GCTGGGCACG | 0.954 ± 0.015 |
| GCTGGGCATT | 0.99173 ± 0.00022 |
| GCTGGGCGGC | 0.95 ± 0.014 |
| GCTGGGGGAG | 0.982 ± 0.067 |
| GCTGGGGGGT | 1 ± 0.044 |
| GCTGGGTATT | 0.9435 ± 0.0054 |
| GCTGGTATTG | 1 ± 0.031 |
| GCTGGTGTTG | 1 ± 0.013 |
| GCTGGTTAAA | 0.97834 ± 0.00053 |
| GCTGTAAAGA | 0.983 ± 0.029 |
